From PMC10080691, “Enzyme-Responsive Double-Locked Photodynamic Molecular Beacon for Targeted Photodynamic Anticancer Therapy” (Journal of the American Chemical Society, 2023)

Columns and labels:
[1] = Fluorescence quantum yield in DMF; type: physicochemical; details: excited at 610 nm, relative to ZnPc (ΦF = 0.28 in DMF)
Source text: The electronic absorption and fluorescence spectra of PMB 1 were first recorded in DMF and compared with those of the components 8 and 11, as well as the non-cleavable analogue 14 (Figure S2 and Table 1). […] In contrast, the fluorescence spectra of 1 and 14 were remarkably different from that of DSBDP 8.

[2] = Singlet oxygen quantum yield in DMF with DPBF as probe; type: physicochemical; details: irradiation λ > 610 nm, relative to ZnPc (ΦΔ = 0.56 in DMF)
Source text: The singlet oxygen generation efficiency of 1 was then studied and compared with that of 8, 14, and ZnPc in all these media using 1,3-diphenylisobenzofuran (DPBF) as the singlet oxygen probe.[67] The absorbance of DPBF’s absorption at 415 nm (in DMF) or 417 nm (in PBS and the buffer) was monitored during light irradiation (λ > 610 nm). Figures S4–S6 show the changes in the absorption spectra of the mixtures in DMF, PBS, and the buffer, respectively, upon irradiation. […] The singlet oxygen quantum yields (ΦΔ) were also determined in DMF. […]
where W and Iabs are the DPBF photobleaching rate and the rate of light absorption, […]
MMP-2 and Cathepsin B-Responsive Spectroscopic Studies
Compound 1 or 14 was dissolved in DMF to form a 1 mM stock solution, which was then diluted to 1 μM with PBS at pH 7.4 or buffer solution (pH 5.0, 25 mM NaOAc, 1 mM EDTA, 500 μM GSH), both in the presence of 0.1% Tween 80 (v/v) . For the MMP-2-responsive studies, the solutions in PBS were treated with MMP-2 (2 μg mL-1). For the cathepsin B-responsive studies, the solutions in buffer solution were treated with cathepsin B (1 unit mL-1). […]
All of the solutions were stirred continuously at 37 °C. The ir electronic absorption and fluorescence spectra were monitored over a period of 25 h. […]

[3] = system: A549 tumor-bearing nude mice; assay: In vivo PDT; parameters: species or system Balb/c nude mice; details: for H&E staining of major organs, Day 14 / H&E staining of tumor, Day 14 / change in body weight over 14 days: intratumoral 20 nmol + laser 680 nm, 180 J cm-2; for change in body weight over 14 days / tumor size over 14 days: n = 4; for tumor size over 14 days: intratumoral 20 nmol, laser 680 nm, 0.3 W cm-2, 10 min (180 J cm-2) at 6 h post-injection
Method: To further examine the in vivo PDT efficacy of 1, A549 tumor-bearing nude mice were first intratumorally injected with 1 or the non-cleavable control 14 (20 nmol) in 20 μL of distilled water containing 7.5% dimethyl sulfoxide (DMSO) and 0.5% Tween 80 (v/v). After 6 h, when the difference in tumoral fluorescence intensity was the largest between the two conjugates (Figure 7b), the tumor was irradiated with a diode laser at 680 nm (0.3 W cm^–2) for 10 min. As another negative control, another group of mice were injected with PBS only without the laser treatment. The tumor size of all mice was monitored continuously for 14 days after the different treatments.
The body weight of the mice was also monitored during the course of these treatments (Figure 7e). […] In addition, the PDT effect on the tumor and major organs was further investigated by hematoxylin and eosin (H&E) staining.
A549 tumor-bearing nude mice were prepared as described above. The length and width of the tumor were measured using a micrometer digital caliper (SCITOP Systems). The tumor volume (mm3) was calculated using the formula: tumor volume = (length × width2)/2. Once the tumors had grown to a size of 80 –100 mm3, 1 or 14 (20 nmol) dissolved in 20 μL of distilled water containing 7.5% DMSO and 0.5% Tween 80 (v/v) was injected to the tumor -bearing mice through intratu moral injection. At 6 h post-injection, the tumor was illuminated with a diode […]
The tumor size o f the nude mice was monitored periodically for the next 14 days. The tumor volumes were also compared with a PBS control group of mice without the light treatment.
Four mice were used for each group. On Day 14 after the PDT treatment, the mice were sacrificed, and the tumor and major organs were harvested. The tissues were fixed with 4% […]
and embedded in paraffin. […]

Row | SMILES | ΦF (fluorescence quantum yield) [1] | ΦΔ (singlet oxygen quantum yield) [2] | H&E staining of major organs, Day 14 [3] | H&E staining of tumor, Day 14 [3] | change in body weight over 14 days [3] | tumor size over 14 days [3]
1 | CCN(CC)c1ccc2nc3ccc(/N=N/c4ccc(N(C)CCCNC(=O)OC[C@@H]5[C@@H]6CCc7nnn(CC(=O)NCCCC[C@@H]8NC(=O)CNC(=O)[C@H](CCCCN)NC(=O)[C@H](CCCNC(=N)N)NC(=O)[C@H](C(C)C)NC(=O)CNC(=O)[C@H](CC(C)C)NC(=O)[C@@H]9CCCN9C(=O)[C@H](CCCCN)NC(=O)[C@@H](N)CSCc9cc(COc%10ccc(C%11=C%12C(C)=C(I)C(/C=C/c%13ccc(OCCOCCOCCOC)cc%13)=[N+]%12[B-](F)(F)n%12c(/C=C/c%13ccc(OCCOCCOCCOC)cc%13)c(I)c(C)c%12%11)cc%10)cc(c9)CSC[C@@H](C(N)=O)NC(=O)[C@H](CCCCN)NC(=O)[C@H](CCCCN)NC(=O)CNC(=O)[C@H](CC(C)C)NC(=O)[C@H](Cc9ccccc9)NC(=O)CNC(=O)[C@H](CCCCN)NC(=O)CNC8=O)c7CC[C@@H]65)cc4)cc3[n+](-c3ccccc3)c2c1 [compound 1] | 0.01 | 0.02 | no apparent damage | significant cellular damage and necrosis | negligible change | greatly reduced
2 | CCN(CC)c1ccc2nc3ccc(/N=N/c4ccc(N(C)CCCNC(=O)OC[C@@H]5[C@@H]6CCc7nnn(CC(=O)NCCCC[C@@H]8NC(=O)CNC(=O)[C@H](CCCCN)NC(=O)CNC(=O)CNC(=O)CNC(=O)CNC(=O)CNC(=O)[C@H](CCCCN)NC(=O)[C@@H](N)CSCc9cc(COc%10ccc(C%11=C%12C(C)=C(I)C(/C=C/c%13ccc(OCCOCCOCCOC)cc%13)=[N+]%12[B-](F)(F)n%12c(/C=C/c%13ccc(OCCOCCOCCOC)cc%13)c(I)c(C)c%12%11)cc%10)cc(c9)CSC[C@@H](C(N)=O)NC(=O)[C@H](CCCCN)NC(=O)[C@H](CCCCN)NC(=O)CNC(=O)CNC(=O)CNC(=O)CNC(=O)[C@H](CCCCN)NC(=O)CNC8=O)c7CC[C@@H]65)cc4)cc3[n+](-c3ccccc3)c2c1 [compound 14] | 0.01 | 0.02 | no apparent damage | no apparent damage | negligible change | grew continuously
